Experimental findings from patent publication US20260265396A1 (BIOARCTIC, published 2026) are described below.

The target of assay [1] is T1, human TfR1, recombinant, construct not stated for the experiment (human, UniProt P02786 89-760, limits assumed).
T1 construct: Biotinylated in the binning and scFv-Fc BLI experiments; also called hTfR1; biotinylated hTfR1
Put plainly: indirect ELISA, plate coated with 1 ug/ml recombinant hTfR1 ectodomain, Fab 1:3 dilution series, anti-human IgG F(ab')2-HRP [lower panel hTfR1].

Assay [2] concerns the target T2, chimeric TfR1 consisting of human apical domain grafted on mouse TfR1 ectodomain (SEQ ID NO:57) (human/mouse chimera).
T2 construct: His-tagged ELISA coat; also called h/m apical domain chimera
T2 chain: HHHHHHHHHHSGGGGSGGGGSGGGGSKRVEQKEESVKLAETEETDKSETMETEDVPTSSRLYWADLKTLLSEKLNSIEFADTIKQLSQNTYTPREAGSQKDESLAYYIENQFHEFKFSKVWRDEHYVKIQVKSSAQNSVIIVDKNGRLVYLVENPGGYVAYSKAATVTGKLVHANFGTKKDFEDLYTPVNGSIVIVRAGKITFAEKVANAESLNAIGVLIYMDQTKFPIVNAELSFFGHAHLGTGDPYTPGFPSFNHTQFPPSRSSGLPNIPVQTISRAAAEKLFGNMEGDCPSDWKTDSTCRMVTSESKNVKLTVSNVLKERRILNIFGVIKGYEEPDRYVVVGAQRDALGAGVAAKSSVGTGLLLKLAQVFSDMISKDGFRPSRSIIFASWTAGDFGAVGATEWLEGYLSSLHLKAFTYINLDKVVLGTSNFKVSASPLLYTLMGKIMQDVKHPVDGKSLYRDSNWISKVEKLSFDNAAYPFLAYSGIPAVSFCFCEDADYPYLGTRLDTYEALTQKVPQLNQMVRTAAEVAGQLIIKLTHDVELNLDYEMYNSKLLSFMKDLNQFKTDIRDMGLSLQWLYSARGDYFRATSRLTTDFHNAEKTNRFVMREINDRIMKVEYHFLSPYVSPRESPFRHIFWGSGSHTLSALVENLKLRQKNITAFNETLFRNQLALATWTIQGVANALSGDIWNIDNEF
Put plainly: indirect ELISA, plate coated with 1 ug/ml h/m apical domain chimera (axis labelled TfR (ng/ml)) [C]. As for the experimental part:
The coated plates were then blocked. Dilution series of mouse IgG of the analyzed antibodies were prepared in PBS and incubated on the ELISA plates. Unbound antibodies were then washed off before incubating wells with a HRP-conjugated secondary, anti-mouse-IgG for 1 h. Plates were then washed again before addition of HRP substrate TMB for development and detection of antibody binding to the wells. TMB development was stopped by adding 0.5 M H₂SO₄ to the wells and ELISA responses measured as the OD at 450 nm in an ELISA plate reader.

T1 sequence (P02786 89-760 limits assumed): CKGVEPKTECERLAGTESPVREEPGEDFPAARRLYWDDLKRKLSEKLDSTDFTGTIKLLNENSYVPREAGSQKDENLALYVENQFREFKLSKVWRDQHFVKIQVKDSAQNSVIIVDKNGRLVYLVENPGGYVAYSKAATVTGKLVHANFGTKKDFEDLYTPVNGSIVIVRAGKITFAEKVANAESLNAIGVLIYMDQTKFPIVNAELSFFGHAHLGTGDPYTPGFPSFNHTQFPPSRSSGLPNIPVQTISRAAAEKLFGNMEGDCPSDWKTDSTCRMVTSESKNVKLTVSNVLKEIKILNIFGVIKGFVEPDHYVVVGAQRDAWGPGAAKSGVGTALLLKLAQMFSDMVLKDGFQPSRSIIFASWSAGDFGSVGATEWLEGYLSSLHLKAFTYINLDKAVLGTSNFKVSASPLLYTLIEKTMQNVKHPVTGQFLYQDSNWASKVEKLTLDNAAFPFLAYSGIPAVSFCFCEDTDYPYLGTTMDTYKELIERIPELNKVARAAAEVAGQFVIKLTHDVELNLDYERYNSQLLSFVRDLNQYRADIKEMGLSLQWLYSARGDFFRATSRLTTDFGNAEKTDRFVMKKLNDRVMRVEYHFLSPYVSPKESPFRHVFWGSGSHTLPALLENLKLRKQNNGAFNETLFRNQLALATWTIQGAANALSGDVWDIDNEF

B1: h26D3 Fab (humanized 26D3) (Fab, V domains shown)
VH: EVQLVQSGAEVKKPGSSVKVSCKASGYIFTDYNMDWVRQAPGQGLEWIGDINPDYDTTSYNEKFKGRATLTVDKSTSTAYMELSSLRSEDTAVYYCARGGYSGSSYYHPMDYWGQGTLVTVSS
VL: DIQMTQSPSSVSASVGDRVTITCKSSQSLLYSTNQKNYLAWYQQKPGKAPKLLIYWASTRESGVPSRFSGSGSGTDFTLTISSLQPEDFATYYCQQYFIYPRTFGQGTKVEIK
notes: His-tagged Fab from ExpiCHO cells
For the molecule B1, the “EC50 (read off the curve)” value in assay [1] is roughly 500 nM.

B2: mouse monoclonal antibody 26D3 (antibody, mouse IgG2a, V domains shown)
VH: EVQLQQFGVELVKPGASVKISCKASGYIFTDYNMDWVKQSHGKSLEWIGDINPDYDTTSYNEKFKGKATLTVDKSSSTAYMELRSLTSEDTAVYYCARGGYSGSSYYHPMDYWGQGTSVTVSS
VL: DIVMSQSPSSLAVSVGEKITMSCKSSQSLLYSTNQKNYLAWYQQKPGQSPELLIYWASTRESGVPDRFTGSGSGTDFTLTISNVRAEDLAVYYCQQYFIYPRTFGGGTKLEIK
Regarding B2, the binding result in assay [2] is reported as “no binding (tested: about 650 ng/ml)”.
